T1: FcgRIIaR (human, UniProt P12318 34-217)
T1 construct: extracellular domain; also called FcγRIIa R; FcgRIIa type R; not shown: His tag attached to the C terminus
T1 sequence (looked up): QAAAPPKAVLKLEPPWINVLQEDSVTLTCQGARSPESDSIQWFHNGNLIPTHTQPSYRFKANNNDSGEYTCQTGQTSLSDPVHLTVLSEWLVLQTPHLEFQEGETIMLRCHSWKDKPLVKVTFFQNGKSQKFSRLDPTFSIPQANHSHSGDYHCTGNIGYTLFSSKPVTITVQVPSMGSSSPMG

T2: FcgRIIaH (human, UniProt P12318 34-217)
T2 construct: extracellular domain; also called FcγRIIa H; FcgRIIa type H; not shown: His tag attached to the C terminus
T2 sequence (looked up): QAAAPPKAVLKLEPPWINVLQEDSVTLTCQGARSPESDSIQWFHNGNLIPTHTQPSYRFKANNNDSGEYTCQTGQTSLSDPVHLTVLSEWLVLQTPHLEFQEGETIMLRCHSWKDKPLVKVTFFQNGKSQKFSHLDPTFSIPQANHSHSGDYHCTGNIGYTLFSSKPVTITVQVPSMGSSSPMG

T3: FcgRIIb (human, UniProt P31994 43-217)
T3 construct: extracellular domain; also called FcγRIIb; 2b; not shown: His tag attached to the C terminus
T3 sequence (looked up): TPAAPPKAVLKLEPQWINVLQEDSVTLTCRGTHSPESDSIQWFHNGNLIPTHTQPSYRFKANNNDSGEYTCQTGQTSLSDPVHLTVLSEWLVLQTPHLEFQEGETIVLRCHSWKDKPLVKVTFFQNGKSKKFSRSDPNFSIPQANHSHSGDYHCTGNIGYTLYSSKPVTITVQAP


Tests used:
Test in all cases: SPR (Biacore); KD of H240-Kn033/H240-Hl033/L73-k0 divided by KD of this variant
FcgRIIaR = target: T1, FcgRIIaR
Experimental: (§1) H240-Kn204/H240-Hl211/L73-k0 and H240-Kn205/H240-Hl212/L73-k0 were prepared according to the method of Reference Example 1, by combining H240-Kn204 as one of the H chains and L73-k0 as the L chains with H240-Hl211 as the other H chain, and by combining H240-Kn205 as one of the H chains and L73-k0 as the L chains with H240-Hl212 as the other H chain, and then expressing them. The binding of the prepared variants to FcgRIa, FcgRIIaR, FcgRIIaH, FcgRIIb, FcgRIIIaF, and FcgRIIIaV was measured according to the method of Reference Example 8.
(§2) “fold 2aR”, “fold 2aH”, “fold 2b”, “fold 3aF”, and “fold 3aV” show the relative binding activity of each variant to FcgRIIaR, FcgRIIaH, FcgRIIb, FcgRIIIaF, and FcgRIIIaV, respectively, when the binding activity of H240-Kn033/H240-Hl033/L73-k0, a variant produced by introducing only alterations that promote formation of a heterodimerized antibody into a native IgG1, is defined as 1. Specifically, they are values obtained by dividing the KD value of H240-Kn033/H240-Hl033/L73-k0 for each FcgR by the KD value of an individual variant for each FcgR.
(§3) Analysis of interaction between objective antibody and the FcγR was carried out using Biacore T100 (GE Healthcare), Biacore T200, Biacore A100, and Biacore 4000. HBS-EP+ (GE Healthcare) was used as the running buffer, and the measurement temperature was set to 25° C. Chips produced by immobilizing the antigen peptide by the amine coupling method to a Series S sensor Chip CM5 (GE Healthcare), chips produced by allowing preliminarily biotinylated antigen peptides to interact with and immobilize onto a Series S Sensor Chip SA (certified) (GE Healthcare), chips produced by immobilizing Protein L (ACTIGEN, BioVision) to Series S Sencor Chip CM5 (GE Healthcare), or chips produced by immobilizing Protein A/G (Thermo Scientific) to Series S Sencor Chip CM5 (GE Healthcare) were used. Antibodies of interest were captured onto these chips, and allowed to interact to each FcγR diluted with running buffer.

FcgRIIaH = target: T2, FcgRIIaH
Experimental: as §1, §2, §3

FcgRIIb = target: T3, FcgRIIb
Experimental: as §1, §2, §3

FcgRIIIaF = target: T4, FcgRIIIaF (human, UniProt P08637 17-208)
T4 construct: extracellular domain; also called FcγRIIIa F; 3aF; not shown: His tag attached to the C terminus
Experimental: as §1, §2, §3

FcgRIIIaV = target: T5, FcgRIIIaV (human, UniProt P08637 17-208)
T5 construct: extracellular domain; also called FcγRIIIa V; 3aV; not shown: His tag attached to the C terminus
Experimental: as §1, §2, §3

T4 sequence (P08637 17-208): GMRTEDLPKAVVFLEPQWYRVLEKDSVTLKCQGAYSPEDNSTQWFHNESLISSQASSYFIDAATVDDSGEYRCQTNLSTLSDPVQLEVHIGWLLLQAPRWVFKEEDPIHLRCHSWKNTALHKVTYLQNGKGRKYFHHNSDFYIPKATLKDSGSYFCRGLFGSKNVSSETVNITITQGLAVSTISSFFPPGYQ
T5 sequence (P08637 17-208 F176V limits assumed): as the sequence (P08637 17-208) above, with F160V counted along it

fold 2aR (FcgRIIaR) [fold]	fold 2aH (FcgRIIaH) [fold]	fold 2b (FcgRIIb) [fold]	fold 3aF (FcgRIIIaF) [fold]	fold 3aV (FcgRIIIaV) [fold]	Binder
2.2	0.8	5.3	31.9	15.5	H240-Kn032/H240-Hl032/L73-k0 (antibody, human IgG1, kappa, Anti-epiregulin IgG1, knobs-into-holes; S239D/A330L/I332E in both H chains (comparison antibody)) heavy 1: QDQLVQSGAEVKKPGASVKVSCKASGFNIKDTYIQWVRQAPGQGLEWMGRIDPLRKQTKYREKFEGRVTITADTSTNTAYMELSSLRSEDTAVYYCVRSGREFDYWGQGTLVTVSSASTKGPSVFPLAPSSKSTSGGTAALGCLVKDYFPEPVTVSWNSGALTSGVHTFPAVLQSSGLYSLSSVVTVPSSSLGTQTYICNVNHKPSNTKVDKKVEPKSCDKTHTCPPCPAPELLGGPDVFLFPPKPKDTLMISRTPEVTCVVVDVSHEDPEVKFNWYVDGVEVHNAKTKPREEQYNSTYRVVSVLTVLHQDWLNGKEYKCKVSNKALPLPEEKTISKAKGQPREPQVCTLPPSRDELTKNQVSLWCLVKGFYPSDIAVEWESNGQPENNYKTTPPVLDSDGSFFLYSKLTVDKSRWQQGNVFSCSVMHEALHNHYTQKSLSLSP heavy 2: QDQLVQSGAEVKKPGASVKVSCKASGFNIKDTYIQWVRQAPGQGLEWMGRIDPLRKQTKYREKFEGRVTITADTSTNTAYMELSSLRSEDTAVYYCVRSGREFDYWGQGTLVTVSSASTKGPSVFPLAPSSKSTSGGTAALGCLVKDYFPEPVTVSWNSGALTSGVHTFPAVLQSSGLYSLSSVVTVPSSSLGTQTYICNVNHKPSNTKVDKKVEPKSCDKTHTCPPCPAPELLGGPDVFLFPPKPKDTLMISRTPEVTCVVVDVSHEDPEVKFNWYVDGVEVHNAKTKPREEQYNSTYRVVSVLTVLHQDWLNGKEYKCKVSNKALPLPEEKTISKAKGQPREPQVYTLPPSRCELTKNQVSLSCAVKGFYPSDIAVEWESNGQPENNYKTTPPVLDSDGSFFLVSKLTVDKSRWQQGNVFSCSVMHEALHNHYTQKSLSLSP light: DIQMTQSPSSLSASVGDRVTITCRASQDIHKYIAWYQQKPGQAPRLLIQYTSTLQPGVPSRFSGSGSGTDYTFTISSLQPEDIATYYCLQYEQLRTFGGGTKVEIKRTVAAPSVFIFPPSDEQLKSGTASVVCLLNNFYPREAKVQWKVDNALQSGNSQESVTEQDSKDSTYSLSSTLTLSKADYEKHKVYACEVTHQGLSSPVTKSFNRGEC
25.5	11.3	8.7	13.8	7.1	H240-Kn037/H240-Hl036/L73-k0 (antibody, human IgG1, kappa) heavy 1: QDQLVQSGAEVKKPGASVKVSCKASGFNIKDTYIQWVRQAPGQGLEWMGRIDPLRKQTKYREKFEGRVTITADTSTNTAYMELSSLRSEDTAVYYCVRSGREFDYWGQGTLVTVSSASTKGPSVFPLAPSSKSTSGGTAALGCLVKDYFPEPVTVSWNSGALTSGVHTFPAVLQSSGLYSLSSVVTVPSSSLGTQTYICNVNHKPSNTKVDKKVEPKSCDKTHTCPPCPAPELLAGPDVFLFPPKPKDTLMISRTPEVTCVVVDVSHEDPEVKFNWYVDGVEVHNAKTKPREEQYNSTYRVVSVLTVLHQDWLNGKEYKCKVSNKALPAPEEKTISKAKGQPREPQVCTLPPSRDELTKNQVSLWCLVKGFYPSDIAVEWESNGQPENNYKTTPPVLDSDGSFFLYSKLTVDKSRWQQGNVFSCSVMHEALHNHYTQKSLSLSP heavy 2: QDQLVQSGAEVKKPGASVKVSCKASGFNIKDTYIQWVRQAPGQGLEWMGRIDPLRKQTKYREKFEGRVTITADTSTNTAYMELSSLRSEDTAVYYCVRSGREFDYWGQGTLVTVSSASTKGPSVFPLAPSSKSTSGGTAALGCLVKDYFPEPVTVSWNSGALTSGVHTFPAVLQSSGLYSLSSVVTVPSSSLGTQTYICNVNHKPSNTKVDKKVEPKSCDKTHTCPPCPAPELLAGPDVFLFPPKPKDTLMISRTPEVTCVVVDVSHEDPEVKFNWYVDGVEVHNAKTKPREEQYNSTYRVVSVLTVLHQDWLNGKEYKCKVSNKALPAPEEKTISKAKGQPREPQVYTLPPSRCELTKNQVSLSCAVKGFYPSDIAVEWESNGQPENNYKTTPPVLDSDGSFFLVSKLTVDKSRWQQGNVFSCSVMHEALHNHYTQKSLSLSP light: DIQMTQSPSSLSASVGDRVTITCRASQDIHKYIAWYQQKPGQAPRLLIQYTSTLQPGVPSRFSGSGSGTDYTFTISSLQPEDIATYYCLQYEQLRTFGGGTKVEIKRTVAAPSVFIFPPSDEQLKSGTASVVCLLNNFYPREAKVQWKVDNALQSGNSQESVTEQDSKDSTYSLSSTLTLSKADYEKHKVYACEVTHQGLSSPVTKSFNRGEC
32.2	11.8	22	121	146	H240-Kn120/H240-Hl068/L73-k0 (antibody, human IgG1, kappa, Anti-epiregulin heterodimerized IgG1, knobs-into-holes) heavy 1: QDQLVQSGAEVKKPGASVKVSCKASGFNIKDTYIQWVRQAPGQGLEWMGRIDPLRKQTKYREKFEGRVTITADTSTNTAYMELSSLRSEDTAVYYCVRSGREFDYWGQGTLVTVSSASTKGPSVFPLAPSSKSTSGGTAALGCLVKDYFPEPVTVSWNSGALTSGVHTFPAVLQSSGLYSLSSVVTVPSSSLGTQTYICNVNHKPSNTKVDKKVEPKSCDKTHTCPPCPAPEYYWGPMVFLFPPKPKDTLMISRTPEVTCVVVDVSDEDPEVKFNWYVDGVEVHNAKTKPREEQYNATYRVVSVLTVLHQDWLNGKEYKCKVSNKDLPAPIEKTISKAKGQPREPQVCTLPPSRDELTKNQVSLWCLVKGFYPSDIAVEWESNGQPENNYKTTPPVLDSDGSFFLYSKLTVDKSRWQQGNVFSCSVMHEALHNHYTQKSLSLSP heavy 2: QDQLVQSGAEVKKPGASVKVSCKASGFNIKDTYIQWVRQAPGQGLEWMGRIDPLRKQTKYREKFEGRVTITADTSTNTAYMELSSLRSEDTAVYYCVRSGREFDYWGQGTLVTVSSASTKGPSVFPLAPSSKSTSGGTAALGCLVKDYFPEPVTVSWNSGALTSGVHTFPAVLQSSGLYSLSSVVTVPSSSLGTQTYICNVNHKPSNTKVDKKVEPKSCDKTHTCPPCPAPELLGGPSVFLFPPKPKDTLMISRTPEVTCVVVDVSHEEPEVKFNWYVDGVEVHNAKTKPREEQYNSTYRVVSVLTVLHQDWLNGKEYKCKVSNDALPKPIEETISKAKGQPREPQVYTLPPSRCELTKNQVSLSCAVKGFYPSDIAVEWESNGQPENNYKTTPPVLDSDGSFFLVSKLTVDKSRWQQGNVFSCSVMHEALHNHYTQKSLSLSP light: DIQMTQSPSSLSASVGDRVTITCRASQDIHKYIAWYQQKPGQAPRLLIQYTSTLQPGVPSRFSGSGSGTDYTFTISSLQPEDIATYYCLQYEQLRTFGGGTKVEIKRTVAAPSVFIFPPSDEQLKSGTASVVCLLNNFYPREAKVQWKVDNALQSGNSQESVTEQDSKDSTYSLSSTLTLSKADYEKHKVYACEVTHQGLSSPVTKSFNRGEC
